Data set [1] addresses T1, TIA-1 RRM23 (UniProt P31483 104-288).
T1 sequence: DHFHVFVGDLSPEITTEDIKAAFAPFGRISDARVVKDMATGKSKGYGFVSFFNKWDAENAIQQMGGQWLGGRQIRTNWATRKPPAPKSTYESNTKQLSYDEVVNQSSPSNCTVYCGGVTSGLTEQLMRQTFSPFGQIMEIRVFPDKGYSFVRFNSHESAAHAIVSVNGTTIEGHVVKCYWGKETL
The data set is described as follows: fluorescence anisotropy. On the technique in general: Fluorescence polarisation rises when a labelled molecule tumbles more slowly, as on binding a larger partner.

The target of data set [2] is T2, SXL RRM12 (UniProt P19339 122-294).
T2 sequence: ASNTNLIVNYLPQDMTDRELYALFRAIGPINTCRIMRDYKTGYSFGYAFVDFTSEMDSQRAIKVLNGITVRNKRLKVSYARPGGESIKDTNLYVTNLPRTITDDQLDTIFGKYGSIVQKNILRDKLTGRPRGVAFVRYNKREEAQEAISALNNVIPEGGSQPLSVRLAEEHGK
The data set is described as follows: fluorescence anisotropy.

These results are taken from publication PMC3050080.

Usually Kd stands for the equilibrium constant for the complex coming apart. UUUUUUUUUUUUUUUUUUUU (ssRNA) [U20]: the Kd in data set [1] is 33 ± 6 nM; in data set [2], 7 ± 3 nM.
